B1: P. aeruginosa TssC1 (H1-T6SS sheath protein), produced in E. coli (natural protein)
chain: MAELSTENLAQGQTTTEQTSEFASLLLQEFKPKTERAREAVETAVRTLAEHALEQTSLISNDAIKSIESIIAALDAKLTAQVNLIMHHADFQQLESAWRGLHYLVNNTETDEQLKIRVLNISKPELHKTLKKFKGTTWDQSPIFKKLYEEEYGQFGGEPYGCLVGDYYFDQSPPDVELLGEMAKISAAMHAPFISAASPTVMGMGSWQELSNPRDLTKIFTTPEYAGWRSLRESEDSRYIGLTMPRFLARLPYGAKTDPVEEFAFEEETDGADSSKYAWANSAYAMAVNINRSFKLYGWCSRIRGVESGGEVQGLPAHTFPTDDGGVDMKCPTEIAISDRREAELAKNGFMPLLHKKNTDFAAFIGAQSLQKPAEYDDPDATANANLAARLPYLFATCRFAHYLKCIVRDKIGSFKEKDEMQRWLQDWILNYVDGDPAHSTETTKAQHPLAAAEVVVEEVEGNPGYYNSKFFLRPHYQLEGLTVSLRLVSKLPSAKEA
notes: TssC1 of the H1-T6SS cluster of Pseudomonas aeruginosa; 498 residues in total (461 traced; M1-A37 not traced); also called VipB/IglB homologue; source: E. coli B834(DE3), co-produced with TssB1 from pET28-B1C1, purified as TssB1C1 tubes (size exclusion chromatography)
B2: P. aeruginosa TssB1 (H1-T6SS sheath protein), produced in E. coli (natural protein)
chain: MGSTTSSQKFIARNRAPRVQIEYDVELYGAEKKVQLPFVMGVMADLAGKPAEPQAAVADRKFLEIDVDNFDARLKAMKPRVAFNVPNVLTGEGNLSLDITFESMDDFSPAAVARKVDSLNKLLEARTQLANLLTYMDGKTGAEEMIMKAIKDPALLQALASAPKPKDDEPQA
notes: TssB1 of the H1-T6SS cluster of Pseudomonas aeruginosa; 172 residues in total (132 traced; M1-S3 and M136-A172 not traced); also called VipA/IglA homologue; source: E. coli B834(DE3), co-produced with TssC1 from pET28-B1C1, purified as TssB1C1 tubes (size exclusion chromatography)

What was measured:
[1] = biological target: the molecule itself; test: cryo-EM structure; TssB1C1 sheaths (1 mg/ml) purified from E. coli, vitrified; helical reconstruction in RELION; contracted sheath with 13-fold symmetry, 3.3 Å; SEC buffer 50 mM Tris-HCl pH 9, 250 mM NaCl, 1 mM EDTA, 5 mM DTT
[2] = biological target: B1; test: as above; conditions: both partners purified

**Q.** Does B1 bind [1]?
**A.** binds

**Q.** Does B2 bind [2]?
**A.** binds
